From paper PMC6339671, “NudCL2 is an Hsp90 cochaperone to regulate sister chromatid cohesion by stabilizing cohesin subunits” (Cellular and Molecular Life Sciences: CMLS, 2018)

How the values were obtained:
His-Smc1α = biological target: T1, His-Smc1α (human, UniProt Q14683 1-1233); experiment: pull-down; GST or GST-NudCL2 protein incubated with each of the purified His-tagged cohesin subunits from Sf9 cells; Western analysis; conditions: both partners purified
T1 construct: Full-length human SMC1A cloned by RT-PCR into pFastBac-HT A (His-tag vector); pFastBac-HT A is recalled to add the His tag at the N-terminus; also called His-tagged Smc1α; SMC1A; source: Sf9 insect cells (Bac-to-Bac baculovirus), purified with nickel-nitrilotriacetic acid beads
T1 sequence (looked up): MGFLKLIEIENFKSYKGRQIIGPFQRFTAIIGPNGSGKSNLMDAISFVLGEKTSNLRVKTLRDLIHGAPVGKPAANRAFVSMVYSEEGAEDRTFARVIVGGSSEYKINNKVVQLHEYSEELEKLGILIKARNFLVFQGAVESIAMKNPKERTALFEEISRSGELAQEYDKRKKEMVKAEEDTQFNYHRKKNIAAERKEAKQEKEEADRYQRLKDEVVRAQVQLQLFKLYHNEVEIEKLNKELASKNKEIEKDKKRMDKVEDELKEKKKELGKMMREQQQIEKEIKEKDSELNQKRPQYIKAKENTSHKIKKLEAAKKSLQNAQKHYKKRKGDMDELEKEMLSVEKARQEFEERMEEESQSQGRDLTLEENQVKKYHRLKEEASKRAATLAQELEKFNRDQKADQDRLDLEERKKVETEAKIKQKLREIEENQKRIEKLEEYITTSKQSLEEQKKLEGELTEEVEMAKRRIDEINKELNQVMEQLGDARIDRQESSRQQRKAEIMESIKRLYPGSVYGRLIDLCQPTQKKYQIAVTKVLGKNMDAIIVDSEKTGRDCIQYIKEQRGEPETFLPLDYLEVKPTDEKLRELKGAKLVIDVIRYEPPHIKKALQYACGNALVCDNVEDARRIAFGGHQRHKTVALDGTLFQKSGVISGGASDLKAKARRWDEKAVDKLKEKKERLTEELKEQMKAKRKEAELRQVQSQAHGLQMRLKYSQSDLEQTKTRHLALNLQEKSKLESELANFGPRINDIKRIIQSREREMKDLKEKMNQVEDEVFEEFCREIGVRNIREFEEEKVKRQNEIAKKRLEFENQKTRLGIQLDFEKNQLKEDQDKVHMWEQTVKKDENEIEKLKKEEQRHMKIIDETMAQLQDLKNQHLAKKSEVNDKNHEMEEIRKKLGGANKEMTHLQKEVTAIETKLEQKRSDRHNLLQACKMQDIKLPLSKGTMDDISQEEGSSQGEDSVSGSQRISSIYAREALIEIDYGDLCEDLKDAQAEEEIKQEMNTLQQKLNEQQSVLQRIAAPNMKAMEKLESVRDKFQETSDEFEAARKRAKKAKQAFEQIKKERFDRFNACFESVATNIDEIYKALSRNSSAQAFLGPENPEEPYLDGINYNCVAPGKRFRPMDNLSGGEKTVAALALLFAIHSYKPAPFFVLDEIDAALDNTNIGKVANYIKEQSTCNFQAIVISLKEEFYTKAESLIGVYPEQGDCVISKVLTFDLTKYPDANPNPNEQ

His-Smc3 = biological target: T2, His-Smc3 (human, UniProt Q9UQE7 1-1217); experiment: as above; conditions: both partners purified
T2 construct: Full-length human SMC3 cloned by RT-PCR into pFastBac-HT A (His-tag vector); pFastBac-HT A is recalled to add the His tag at the N-terminus; also called His-tagged Smc3; source: Sf9 insect cells (Bac-to-Bac baculovirus), purified with nickel-nitrilotriacetic acid beads
T2 sequence (Q9UQE7 whole entry): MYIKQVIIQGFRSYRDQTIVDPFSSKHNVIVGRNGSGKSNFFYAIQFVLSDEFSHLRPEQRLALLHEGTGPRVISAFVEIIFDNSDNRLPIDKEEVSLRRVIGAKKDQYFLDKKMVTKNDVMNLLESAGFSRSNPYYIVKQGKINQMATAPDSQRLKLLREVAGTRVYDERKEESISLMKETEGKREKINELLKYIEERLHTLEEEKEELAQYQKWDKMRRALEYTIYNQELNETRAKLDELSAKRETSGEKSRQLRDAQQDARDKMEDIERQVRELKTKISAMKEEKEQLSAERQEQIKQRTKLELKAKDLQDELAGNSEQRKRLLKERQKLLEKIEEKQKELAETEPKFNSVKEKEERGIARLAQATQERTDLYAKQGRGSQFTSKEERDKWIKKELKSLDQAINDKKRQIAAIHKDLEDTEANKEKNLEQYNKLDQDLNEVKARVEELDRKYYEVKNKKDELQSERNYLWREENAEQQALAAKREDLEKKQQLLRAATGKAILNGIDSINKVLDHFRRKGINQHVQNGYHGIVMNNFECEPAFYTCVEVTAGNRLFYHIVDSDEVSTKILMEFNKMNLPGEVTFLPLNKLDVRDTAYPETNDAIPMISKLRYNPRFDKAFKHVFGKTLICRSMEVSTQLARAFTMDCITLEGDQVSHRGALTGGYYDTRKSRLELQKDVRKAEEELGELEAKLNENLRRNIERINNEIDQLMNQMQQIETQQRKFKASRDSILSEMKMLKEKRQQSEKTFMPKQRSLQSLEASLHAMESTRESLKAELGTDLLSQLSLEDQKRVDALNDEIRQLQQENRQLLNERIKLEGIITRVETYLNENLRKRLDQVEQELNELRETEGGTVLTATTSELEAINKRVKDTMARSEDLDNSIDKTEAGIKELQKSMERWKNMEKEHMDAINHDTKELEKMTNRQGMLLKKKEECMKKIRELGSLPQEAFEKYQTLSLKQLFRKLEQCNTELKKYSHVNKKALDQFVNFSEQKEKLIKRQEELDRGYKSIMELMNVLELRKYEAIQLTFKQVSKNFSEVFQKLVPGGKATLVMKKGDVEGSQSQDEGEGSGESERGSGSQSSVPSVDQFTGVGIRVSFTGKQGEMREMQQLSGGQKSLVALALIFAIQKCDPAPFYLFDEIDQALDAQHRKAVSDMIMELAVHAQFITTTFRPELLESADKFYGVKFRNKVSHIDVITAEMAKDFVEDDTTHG

binding result (His-Smc1α): binds
binding result (His-Smc3): binds
B1: GST-NudCL2 (natural protein, human, UniProt Q8WVJ2 1-157, looked up)
chain: MSAPFEERSGVVPCGTPWGQWYQTLEEVFIEVQVPPGTRAQDIQCGLQSRHVALSVGGREILKGKLFDSTIADEGTWTLEDRKMVRIVLTKTKRDAANCWTSLLESEYAADPWVQDQMQRKLTLERFQKENPGFDFSGAEISGNYTKGGPDFSNLEK
notes: NudCL2 (NudC-like protein 2), human; also called NudC-like protein 2; source: purified from bacteria
